# Results taken from publication PMC12102759 (2025).
# B1: RNF115 peptide 67-82 (E3 ubiquitin-protein ligase RNF115), 16-mer library wild type / MDM2 SWIB (MDM2 SWIB/MDM2 domain, residues 17-125) (parent complex)
# chain 1: TTTHFAELWGHLDHTM
# chain 2: SQIPASEQETLVRPKPLLLKLLKSVGAQKDTYTMKEVLFYLGQYIMTKRLYDEKQQHIVYCSNDLLGDLFGVPSFSVKEHRKIYTMIYRNLVVVNQQESSDSGTSVSEN
# B2: PIP5K1C peptide 642-657 (Phosphatidylinositol 4-phosphate 5-kinase type-1 gamma), 16-mer library wild type / TLN1 PTB (TLN1 Phosphotyrosine-binding (PTB) domain, residues 309-401) (parent complex)
# chain 1: TDERSWVYSPLHYSAQ
# chain 2: GVSFFLVKEKMKGKNKLVPRLLGITKECVMRVDEKTKEVIQEWNLTNIKRWAASPKSFTLDFGDYQDGYYSVQTTEGEQIAQLIAGYIDIILK
# Variants of: B1
# Test: proteomic peptide phage display deep mutational scan (ProP-PD DMS): M13 P8 16-mer library selected against immobilised GST-tagged bait for four days (rounds), NGS of the eluted pools per day and pseudo-replica; bait immobilised on MaxiSorp plates (10 µg), library pre-cleared on GST, 2 h binding at 4 °C, five washes; one round per day, days 1-4; value from days 2 and 3
row,Variant,screen value
1,chain 1 H11E,"0.000714 average fractional NGS count over selection days 2 and 3 (reads of this peptide / all reads for the bait, averaged over …"
2,chain 1 H11I,"0.000552 average fractional NGS count over selection days 2 and 3 (reads of this peptide / all reads for the bait, averaged over …"
3,chain 1 H11A,"0.0021 average fractional NGS count over selection days 2 and 3 (reads of this peptide / all reads for the bait, averaged over …"
4,chain 1 H4K,"0.000298 average fractional NGS count over selection days 2 and 3 (reads of this peptide / all reads for the bait, averaged over …"
5,chain 1 H4S,"0.0034 average fractional NGS count over selection days 2 and 3 (reads of this peptide / all reads for the bait, averaged over …"
6,chain 1 H4V,"0.000238 average fractional NGS count over selection days 2 and 3 (reads of this peptide / all reads for the bait, averaged over …"
7,chain 1 H4Q,"0.00071 average fractional NGS count over selection days 2 and 3 (reads of this peptide / all reads for the bait, averaged over …"
8,chain 1 L12N,"0.000651 average fractional NGS count over selection days 2 and 3 (reads of this peptide / all reads for the bait, averaged over …"
9,chain 1 L12A,"0.000185 average fractional NGS count over selection days 2 and 3 (reads of this peptide / all reads for the bait, averaged over …"
10,chain 1 T15S,"0.000189 average fractional NGS count over selection days 2 and 3 (reads of this peptide / all reads for the bait, averaged over …"
11,chain 1 T15Q,"0.000103 average fractional NGS count over selection days 2 and 3 (reads of this peptide / all reads for the bait, averaged over …"
12,chain 1 T15D,"0.000245 average fractional NGS count over selection days 2 and 3 (reads of this peptide / all reads for the bait, averaged over …"
13,chain 1 A6E,"0.000746 average fractional NGS count over selection days 2 and 3 (reads of this peptide / all reads for the bait, averaged over …"
14,chain 1 A6L,"0.00496 average fractional NGS count over selection days 2 and 3 (reads of this peptide / all reads for the bait, averaged over …"
15,chain 1 A6I,"0.000155 average fractional NGS count over selection days 2 and 3 (reads of this peptide / all reads for the bait, averaged over …"
16,chain 1 D13Y,"0.00726 average fractional NGS count over selection days 2 and 3 (reads of this peptide / all reads for the bait, averaged over …"
17,chain 1 D13E,"0.000754 average fractional NGS count over selection days 2 and 3 (reads of this peptide / all reads for the bait, averaged over …"
18,chain 1 D13L,"0.00105 average fractional NGS count over selection days 2 and 3 (reads of this peptide / all reads for the bait, averaged over …"
19,chain 1 D13I,"0.00102 average fractional NGS count over selection days 2 and 3 (reads of this peptide / all reads for the bait, averaged over …"
20,chain 1 T2A,"0.00136 average fractional NGS count over selection days 2 and 3 (reads of this peptide / all reads for the bait, averaged over …"
21,chain 1 T2H,"0.000527 average fractional NGS count over selection days 2 and 3 (reads of this peptide / all reads for the bait, averaged over …"
22,chain 1 T2Q,"0.00139 average fractional NGS count over selection days 2 and 3 (reads of this peptide / all reads for the bait, averaged over …"

row,Variant,screen value
1,chain 1 T2V,"0.000589 average fractional NGS count over selection days 2 and 3 (reads of this peptide / all reads for the bait, averaged over …"
2,chain 1 T2P,"0.000494 average fractional NGS count over selection days 2 and 3 (reads of this peptide / all reads for the bait, averaged over …"
3,chain 1 T2G,"0.00135 average fractional NGS count over selection days 2 and 3 (reads of this peptide / all reads for the bait, averaged over …"
4,chain 1 T3P,"0.000694 average fractional NGS count over selection days 2 and 3 (reads of this peptide / all reads for the bait, averaged over …"
5,chain 1 T3E,"0.00168 average fractional NGS count over selection days 2 and 3 (reads of this peptide / all reads for the bait, averaged over …"
6,chain 1 T3M,"0.000962 average fractional NGS count over selection days 2 and 3 (reads of this peptide / all reads for the bait, averaged over …"
7,chain 1 T3F,"0.000452 average fractional NGS count over selection days 2 and 3 (reads of this peptide / all reads for the bait, averaged over …"
8,chain 1 G10S,"0.00615 average fractional NGS count over selection days 2 and 3 (reads of this peptide / all reads for the bait, averaged over …"
9,chain 1 G10W,"0.000571 average fractional NGS count over selection days 2 and 3 (reads of this peptide / all reads for the bait, averaged over …"
10,chain 1 G10I,"7.33e-05 average fractional NGS count over selection days 2 and 3 (reads of this peptide / all reads for the bait, averaged over …"
11,chain 1 H14N,"0.00027 average fractional NGS count over selection days 2 and 3 (reads of this peptide / all reads for the bait, averaged over …"
12,chain 1 H14F,"0.00117 average fractional NGS count over selection days 2 and 3 (reads of this peptide / all reads for the bait, averaged over …"
13,chain 1 H14W,"0.00227 average fractional NGS count over selection days 2 and 3 (reads of this peptide / all reads for the bait, averaged over …"
14,chain 1 H14G,"0.00396 average fractional NGS count over selection days 2 and 3 (reads of this peptide / all reads for the bait, averaged over …"
15,chain 1 H14Q,"0.000199 average fractional NGS count over selection days 2 and 3 (reads of this peptide / all reads for the bait, averaged over …"
16,chain 1 H14P,"0.000471 average fractional NGS count over selection days 2 and 3 (reads of this peptide / all reads for the bait, averaged over …"
17,chain 1 H14I,"0.00129 average fractional NGS count over selection days 2 and 3 (reads of this peptide / all reads for the bait, averaged over …"
18,chain 1 M16V,"0.00172 average fractional NGS count over selection days 2 and 3 (reads of this peptide / all reads for the bait, averaged over …"
19,chain 1 M16L,"0.0016 average fractional NGS count over selection days 2 and 3 (reads of this peptide / all reads for the bait, averaged over …"
20,chain 1 M16F,"0.000243 average fractional NGS count over selection days 2 and 3 (reads of this peptide / all reads for the bait, averaged over …"
21,chain 1 M16P,"0.000227 average fractional NGS count over selection days 2 and 3 (reads of this peptide / all reads for the bait, averaged over …"
22,chain 1 M16Q,"0.000223 average fractional NGS count over selection days 2 and 3 (reads of this peptide / all reads for the bait, averaged over …"

# Variants of: B2
# Test: as above
row,Variant,screen value
1,chain 1 L11G,"0.000282 average fractional NGS count over selection days 2 and 3 (reads of this peptide / all reads for the bait, averaged over …"
2,chain 1 Y13P,"0.00124 average fractional NGS count over selection days 2 and 3 (reads of this peptide / all reads for the bait, averaged over …"
3,chain 1 Y13I,"0.00816 average fractional NGS count over selection days 2 and 3 (reads of this peptide / all reads for the bait, averaged over …"
4,chain 1 T1S,"0.00255 average fractional NGS count over selection days 2 and 3 (reads of this peptide / all reads for the bait, averaged over …"
5,chain 1 T1A,"0.00341 average fractional NGS count over selection days 2 and 3 (reads of this peptide / all reads for the bait, averaged over …"
6,chain 1 T1M,"0.000328 average fractional NGS count over selection days 2 and 3 (reads of this peptide / all reads for the bait, averaged over …"
7,chain 1 V7Q,"0.00122 average fractional NGS count over selection days 2 and 3 (reads of this peptide / all reads for the bait, averaged over …"
8,chain 1 V7R,"0.00391 average fractional NGS count over selection days 2 and 3 (reads of this peptide / all reads for the bait, averaged over …"
9,chain 1 V7S,"0.00114 average fractional NGS count over selection days 2 and 3 (reads of this peptide / all reads for the bait, averaged over …"
10,chain 1 P10S,"0.00055 average fractional NGS count over selection days 2 and 3 (reads of this peptide / all reads for the bait, averaged over …"
11,chain 1 P10I,"0.00026 average fractional NGS count over selection days 2 and 3 (reads of this peptide / all reads for the bait, averaged over …"
12,chain 1 P10G,"0.00227 average fractional NGS count over selection days 2 and 3 (reads of this peptide / all reads for the bait, averaged over …"
13,chain 1 P10N,"0.00396 average fractional NGS count over selection days 2 and 3 (reads of this peptide / all reads for the bait, averaged over …"
14,chain 1 Y8P,"0.000696 average fractional NGS count over selection days 2 and 3 (reads of this peptide / all reads for the bait, averaged over …"
15,chain 1 Y8D,"0.00213 average fractional NGS count over selection days 2 and 3 (reads of this peptide / all reads for the bait, averaged over …"
16,chain 1 S14I,"0.000211 average fractional NGS count over selection days 2 and 3 (reads of this peptide / all reads for the bait, averaged over …"

row,Variant,screen value
1,chain 1 S14L,"0.00127 average fractional NGS count over selection days 2 and 3 (reads of this peptide / all reads for the bait, averaged over …"
2,chain 1 A15R,"0.000696 average fractional NGS count over selection days 2 and 3 (reads of this peptide / all reads for the bait, averaged over …"
3,chain 1 A15N,"0.000427 average fractional NGS count over selection days 2 and 3 (reads of this peptide / all reads for the bait, averaged over …"
4,chain 1 A15E,"0.00381 average fractional NGS count over selection days 2 and 3 (reads of this peptide / all reads for the bait, averaged over …"
5,chain 1 D2T,"0.00067 average fractional NGS count over selection days 2 and 3 (reads of this peptide / all reads for the bait, averaged over …"
6,chain 1 S5Y,"0.000589 average fractional NGS count over selection days 2 and 3 (reads of this peptide / all reads for the bait, averaged over …"
7,chain 1 H12I,"0.000636 average fractional NGS count over selection days 2 and 3 (reads of this peptide / all reads for the bait, averaged over …"
8,chain 1 H12S,"0.000155 average fractional NGS count over selection days 2 and 3 (reads of this peptide / all reads for the bait, averaged over …"
9,chain 1 H12Y,"0.000256 average fractional NGS count over selection days 2 and 3 (reads of this peptide / all reads for the bait, averaged over …"
10,chain 1 R4K,"0.000222 average fractional NGS count over selection days 2 and 3 (reads of this peptide / all reads for the bait, averaged over …"
11,chain 1 R4E,"0.00181 average fractional NGS count over selection days 2 and 3 (reads of this peptide / all reads for the bait, averaged over …"
12,chain 1 R4L,"0.00628 average fractional NGS count over selection days 2 and 3 (reads of this peptide / all reads for the bait, averaged over …"
13,chain 1 S9M,"0.000276 average fractional NGS count over selection days 2 and 3 (reads of this peptide / all reads for the bait, averaged over …"
14,chain 1 S9T,"0.000558 average fractional NGS count over selection days 2 and 3 (reads of this peptide / all reads for the bait, averaged over …"
15,chain 1 S9H,"0.000148 average fractional NGS count over selection days 2 and 3 (reads of this peptide / all reads for the bait, averaged over …"
